Test results published in US20240336926.
Read-outs that look alike come from different tables or passages of the source.

What was measured:
[1] = target: Human serum albumin (HSA) (Homo sapiens) (UniProt P02768); conditions: Nap-dU at all n positions, plate ELISA, buffer SB18, 37 C
[2] = tested on: K-RAS G12D G12D, P01116-2; conditions: Nap-dU at all n positions; plate ELISA, buffer SB18, 37 C, R2 97.1

Work on “GACTAGCATAAGTCCGGATGGCAGCTTTATGCCG [AD006]” yielded a Kd ([1]; R2 75.9) of 939 nM.
Work on GCATAAGTCCGGATGGCAGCTTTATGC [AD008] yielded a Kd [2] of 287 nM.
“GCATAAGTCCGGATGGCAGCTTTATGCCGACC [AD007]” showed a Kd ([1]; R2 97.0) of 536 nM.
